# From patent WO2008021263A2 (dated 2008)
# Columns and labels:
# dimeric form of SDF-1α [1] = target: T1, dimeric form of SDF-1α (Felis catus (Cat) (Felis silvestris …, UniProt O62657 22-89)); experiment: SPR, both formats (SDF-1α on chip; Fab on anti-CH1 chip)
# T1 construct: Same protein as m1; also called SDF-lα dimers; dimeric state of the SDF-1α antigen
# [2] = target: T2, SDF-1α (stromal cell-derived factor-1 alpha) (Felis catus (Cat) (Felis silvestris …, UniProt O62657 22-89)); experiment: SPR, SDF-1α with heparin in solution (Figure 7 legend: 1D3 IgG)
# T2 construct: also called SDF-lα; SDF-I α
# [3] = target: SDF-FITC (FITC-labelled SDF-1α) (Felis catus (Cat) (Felis silvestris …, UniProt O62657 22-89, FITC label, site not stated)); experiment: fluorescence polarization time course with FITC-labelled SDF-1α (Figures 8A-8C)
# dimeric form of SDF-1α [4] = target: T1, dimeric form of SDF-1α; experiment: SPR, IgG immobilised on chip, SDF-1α flowed (Table VI, not shown)
# [5] = target: T2, SDF-1α (stromal cell-derived factor-1 …); experiment: SPR, time course after dilution of SDF-1α in buffers HBS-EP, HBS-P and HBS-N
# [6] = target: T2, SDF-1α (stromal cell-derived factor-1 …); experiment: SPR, Fab captured on anti-CH1 chip, SDF-1α flowed (Table IV, not shown)
# T2 sequence (O62657 22-89 limits assumed): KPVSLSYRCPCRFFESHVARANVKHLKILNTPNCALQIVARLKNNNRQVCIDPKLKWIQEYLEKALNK
# T1 sequence (O62657 22-89 limits assumed): as above
# Sequence of SDF-FITC (FITC-labelled SDF-1α) (Felis catus (Cat) (O62657 22-89 limits assumed): as above
Binder,binding result (dimeric form of SDF-1α [1]),binding result [2],binding result [3],binding result (dimeric form of SDF-1α [4]),binding result [5],binding result [6]
"1D3 Fab (Fab, V domains shown, Fab of the 1D3 human monoclonal antibody; the constant parts are not; also called B-type Fab) VH: EVQLVQSGAEVKKPGASVKVSCKVSGYTLTKLSVHWVRQAPGKGLEWMGSFDPEDGETIYSQRFQGRVTMTEDTSTDTAYMELTSLRSEDTAVYYCATEGQWLVAYYGMDVWGQGTTVTVSS VL: EIVLTQSPSSLSASVGDRVTITCRASQGISSALAWYQQKPGKAPKLLIYDASSLESGVPSRFSGSGSGTDFTLTISSLQPEDFATYYCQQFNSYPLTFGGGTKVEIK",binds,,,,,
"1D3 IgG (antibody, V domains shown, Human monoclonal IgG; also called B-type IgG; B-type antibody) VH: EVQLVQSGAEVKKPGASVKVSCKVSGYTLTKLSVHWVRQAPGKGLEWMGSFDPEDGETIYSQRFQGRVTMTEDTSTDTAYMELTSLRSEDTAVYYCATEGQWLVAYYGMDVWGQGTTVTVSS VL: EIVLTQSPSSLSASVGDRVTITCRASQGISSALAWYQQKPGKAPKLLIYDASSLESGVPSRFSGSGSGTDFTLTISSLQPEDFATYYCQQFNSYPLTFGGGTKVEIK",,binds,binds,binds,,
"1H2 IgG (antibody, V domains shown, Human monoclonal IgG; also called B-type IgG; B-type antibody) VH: QVQLVQSGAEVKKPGASVKVSCKVSGYTFTKLSVHWVRQAPGKGLEWMGSFDPEDGETIYSQRFQGRVTMTEDTSTDTAYMELSSLRSEDTAVYYCATEGQWLVAYYGMDVWGQGTMVTVSS VL: EIVLTQSPSSLSASVGDRVTITCRASQGISSALAWYQQKPGKAPKLLIYDASSLESGVPSRFSGSGSGTDFTLTISSLQPEDFATYYCQQFNSYPLTFGGGTKVEIK",,,binds,binds,binds,
"1H2 Fab (Fab, V domains shown, Fab of the 1H2 human monoclonal antibody; the constant parts are not; also called B-type Fab) VH: QVQLVQSGAEVKKPGASVKVSCKVSGYTFTKLSVHWVRQAPGKGLEWMGSFDPEDGETIYSQRFQGRVTMTEDTSTDTAYMELSSLRSEDTAVYYCATEGQWLVAYYGMDVWGQGTMVTVSS VL: EIVLTQSPSSLSASVGDRVTITCRASQGISSALAWYQQKPGKAPKLLIYDASSLESGVPSRFSGSGSGTDFTLTISSLQPEDFATYYCQQFNSYPLTFGGGTKVEIK",binds,,,,,binds
